Key:
[1] = target: T1, Goodpasture antigen-binding protein (GPBP) (Homo sapiens, UniProt Q9Y5P4); assay: […] in vitro autophosphorylation of purified multimeric GPBP at […] T12; FPLC-SEC shift of GPBP oligomers (BSA control unaffected); type: biochemical
T1 construct: gene CERT1; FLAG-tagged recombinant GPBP multimer (77-kDa GPBP isoform); also native extracellular A427 GPBP
T1 sequence (Q9Y5P4 1-624): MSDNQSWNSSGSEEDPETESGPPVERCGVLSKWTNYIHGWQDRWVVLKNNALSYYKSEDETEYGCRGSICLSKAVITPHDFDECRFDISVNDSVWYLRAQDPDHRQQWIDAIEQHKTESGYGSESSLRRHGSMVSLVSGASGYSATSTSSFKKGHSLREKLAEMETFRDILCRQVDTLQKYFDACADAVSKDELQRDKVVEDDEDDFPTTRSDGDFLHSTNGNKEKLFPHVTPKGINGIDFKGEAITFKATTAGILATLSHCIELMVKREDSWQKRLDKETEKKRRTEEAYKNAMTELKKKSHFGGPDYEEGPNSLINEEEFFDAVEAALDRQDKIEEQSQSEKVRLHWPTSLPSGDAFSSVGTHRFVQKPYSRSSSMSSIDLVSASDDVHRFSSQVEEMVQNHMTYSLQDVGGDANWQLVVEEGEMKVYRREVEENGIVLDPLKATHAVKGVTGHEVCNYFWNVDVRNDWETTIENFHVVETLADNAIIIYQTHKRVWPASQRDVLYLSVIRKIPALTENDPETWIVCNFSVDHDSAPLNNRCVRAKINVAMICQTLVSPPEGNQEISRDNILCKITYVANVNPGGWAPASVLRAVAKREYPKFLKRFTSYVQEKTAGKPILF

GPBP (FLAG-GPBP) = target: T2, GPBP (FLAG-GPBP) (Homo sapiens, UniProt Q9Y5P4); assay: […] in vitro autophosphorylation of FLAG-GPBP (Figure 9G); type: biochemical
T2 construct: gene CERT1; FLAG-GPBP
T2 sequence (Q9Y5P4 1-624): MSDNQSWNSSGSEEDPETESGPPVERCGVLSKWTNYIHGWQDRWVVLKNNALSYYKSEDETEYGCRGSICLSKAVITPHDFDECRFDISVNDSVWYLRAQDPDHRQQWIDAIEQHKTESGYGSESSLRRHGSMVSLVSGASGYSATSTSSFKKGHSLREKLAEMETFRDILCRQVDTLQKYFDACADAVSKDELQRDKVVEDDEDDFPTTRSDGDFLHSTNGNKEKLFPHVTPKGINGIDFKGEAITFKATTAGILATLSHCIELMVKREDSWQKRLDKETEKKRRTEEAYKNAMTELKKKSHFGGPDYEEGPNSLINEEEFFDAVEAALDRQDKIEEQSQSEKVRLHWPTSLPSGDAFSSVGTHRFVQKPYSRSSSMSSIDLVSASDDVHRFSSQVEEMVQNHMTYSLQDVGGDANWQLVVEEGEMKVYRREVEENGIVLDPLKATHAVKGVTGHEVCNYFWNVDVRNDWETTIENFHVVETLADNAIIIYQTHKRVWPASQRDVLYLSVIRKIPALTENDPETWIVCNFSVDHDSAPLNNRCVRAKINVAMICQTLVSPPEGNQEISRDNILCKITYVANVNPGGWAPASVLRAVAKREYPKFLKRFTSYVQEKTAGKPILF

[2] = target: the molecule itself; assay: SEC; FPLC-SEC on Superdex 200 of FLAG-GPBP purified from Sf9 culture media; calibrators thyroglobulin, aldolase, human serum albumin
[3] = target: the molecule itself; assay: SEC; GPBP affinity-purified from culture media of A427 and A549 cells (scFvN26 column, native elution with peptide PS132), FPLC-SEC on Superdex 200, fractions read by indirect ELISA with anti-GPBP mAb
[4] = target: the molecule itself; assay: SEC; HPLC-SEC on TSKgel G4000SW of purified yeast recombinant FLAG-tagged polypeptides

With `COc1ccc(-c2ccc(-c3cccc(C)c3)c(C)c2)c(CCC(=O)O)c1` [T12, 3-[4″-methoxy-3,2′-dimethyl-(1,1′;4′,1″)terphenyl-2″-yl]propionic acid] the “32P in vitro autophosphorylation of purified multimeric GPBP at 50 μM T12; FPLC-” value [1] was “T12 reduced autophosphorylation of recombinant multimer but did not affect the recombinant GPBP trimer autophosphorylation activity”.

In the case of `COc1cccc2c1C(=O)c1c(O)c3c(c(O)c1C2=O)C[C@@](O)(C(=O)CO)C[C@@H]3O[C@H]1C[C@H](N)[C@H](O)[C@H](C)O1` [doxorubicin], the “32P in vitro autophosphorylation of FLAG-GPBP (Figure 9G)” value (GPBP (FLAG-GPBP)) is reported as “it was shown the existence of GPBP species sensitive to doxorubicin (Figure 9G)”.

B1: FLAG-tagged GPBP (Goodpasture antigen-binding protein), extracellular pool from Sf9 cells (natural protein, human, UniProt Q9Y5P4 1-624, looked up)
chain: MSDNQSWNSSGSEEDPETESGPPVERCGVLSKWTNYIHGWQDRWVVLKNNALSYYKSEDETEYGCRGSICLSKAVITPHDFDECRFDISVNDSVWYLRAQDPDHRQQWIDAIEQHKTESGYGSESSLRRHGSMVSLVSGASGYSATSTSSFKKGHSLREKLAEMETFRDILCRQVDTLQKYFDACADAVSKDELQRDKVVEDDEDDFPTTRSDGDFLHSTNGNKEKLFPHVTPKGINGIDFKGEAITFKATTAGILATLSHCIELMVKREDSWQKRLDKETEKKRRTEEAYKNAMTELKKKSHFGGPDYEEGPNSLINEEEFFDAVEAALDRQDKIEEQSQSEKVRLHWPTSLPSGDAFSSVGTHRFVQKPYSRSSSMSSIDLVSASDDVHRFSSQVEEMVQNHMTYSLQDVGGDANWQLVVEEGEMKVYRREVEENGIVLDPLKATHAVKGVTGHEVCNYFWNVDVRNDWETTIENFHVVETLADNAIIIYQTHKRVWPASQRDVLYLSVIRKIPALTENDPETWIVCNFSVDHDSAPLNNRCVRAKINVAMICQTLVSPPEGNQEISRDNILCKITYVANVNPGGWAPASVLRAVAKREYPKFLKRFTSYVQEKTAGKPILF
notes: Constructs may be described in the extended methods (Supplementary Materials); also called FLAG-GPBP; extracellular GPBP
B1: binds [2].

B2: native extracellular GPBP isolated from the culture media of human NSCLC cells (A427, A549) (natural protein, human (endogenous in A427 and A549), UniProt Q9Y5P4 1-624, looked up)
chain: MSDNQSWNSSGSEEDPETESGPPVERCGVLSKWTNYIHGWQDRWVVLKNNALSYYKSEDETEYGCRGSICLSKAVITPHDFDECRFDISVNDSVWYLRAQDPDHRQQWIDAIEQHKTESGYGSESSLRRHGSMVSLVSGASGYSATSTSSFKKGHSLREKLAEMETFRDILCRQVDTLQKYFDACADAVSKDELQRDKVVEDDEDDFPTTRSDGDFLHSTNGNKEKLFPHVTPKGINGIDFKGEAITFKATTAGILATLSHCIELMVKREDSWQKRLDKETEKKRRTEEAYKNAMTELKKKSHFGGPDYEEGPNSLINEEEFFDAVEAALDRQDKIEEQSQSEKVRLHWPTSLPSGDAFSSVGTHRFVQKPYSRSSSMSSIDLVSASDDVHRFSSQVEEMVQNHMTYSLQDVGGDANWQLVVEEGEMKVYRREVEENGIVLDPLKATHAVKGVTGHEVCNYFWNVDVRNDWETTIENFHVVETLADNAIIIYQTHKRVWPASQRDVLYLSVIRKIPALTENDPETWIVCNFSVDHDSAPLNNRCVRAKINVAMICQTLVSPPEGNQEISRDNILCKITYVANVNPGGWAPASVLRAVAKREYPKFLKRFTSYVQEKTAGKPILF
notes: also called native extracellular A427 GPBP; mesenchymal GPBP
B2: binds [3].

B3: yeast recombinant FLAG-tagged GPBP (natural protein, human, UniProt Q9Y5P4 1-624, looked up)
chain: MSDNQSWNSSGSEEDPETESGPPVERCGVLSKWTNYIHGWQDRWVVLKNNALSYYKSEDETEYGCRGSICLSKAVITPHDFDECRFDISVNDSVWYLRAQDPDHRQQWIDAIEQHKTESGYGSESSLRRHGSMVSLVSGASGYSATSTSSFKKGHSLREKLAEMETFRDILCRQVDTLQKYFDACADAVSKDELQRDKVVEDDEDDFPTTRSDGDFLHSTNGNKEKLFPHVTPKGINGIDFKGEAITFKATTAGILATLSHCIELMVKREDSWQKRLDKETEKKRRTEEAYKNAMTELKKKSHFGGPDYEEGPNSLINEEEFFDAVEAALDRQDKIEEQSQSEKVRLHWPTSLPSGDAFSSVGTHRFVQKPYSRSSSMSSIDLVSASDDVHRFSSQVEEMVQNHMTYSLQDVGGDANWQLVVEEGEMKVYRREVEENGIVLDPLKATHAVKGVTGHEVCNYFWNVDVRNDWETTIENFHVVETLADNAIIIYQTHKRVWPASQRDVLYLSVIRKIPALTENDPETWIVCNFSVDHDSAPLNNRCVRAKINVAMICQTLVSPPEGNQEISRDNILCKITYVANVNPGGWAPASVLRAVAKREYPKFLKRFTSYVQEKTAGKPILF
notes: also called FLAG-GPBP
B3: binds [4].

B4: yeast recombinant FLAG-tagged GPBP-Ala264 (natural protein, human, UniProt Q9Y5P4 1-624, looked up)
chain: MSDNQSWNSSGSEEDPETESGPPVERCGVLSKWTNYIHGWQDRWVVLKNNALSYYKSEDETEYGCRGSICLSKAVITPHDFDECRFDISVNDSVWYLRAQDPDHRQQWIDAIEQHKTESGYGSESSLRRHGSMVSLVSGASGYSATSTSSFKKGHSLREKLAEMETFRDILCRQVDTLQKYFDACADAVSKDELQRDKVVEDDEDDFPTTRSDGDFLHSTNGNKEKLFPHVTPKGINGIDFKGEAITFKATTAGILATLSHCIALMVKREDSWQKRLDKETEKKRRTEEAYKNAMTELKKKSHFGGPDYEEGPNSLINEEEFFDAVEAALDRQDKIEEQSQSEKVRLHWPTSLPSGDAFSSVGTHRFVQKPYSRSSSMSSIDLVSASDDVHRFSSQVEEMVQNHMTYSLQDVGGDANWQLVVEEGEMKVYRREVEENGIVLDPLKATHAVKGVTGHEVCNYFWNVDVRNDWETTIENFHVVETLADNAIIIYQTHKRVWPASQRDVLYLSVIRKIPALTENDPETWIVCNFSVDHDSAPLNNRCVRAKINVAMICQTLVSPPEGNQEISRDNILCKITYVANVNPGGWAPASVLRAVAKREYPKFLKRFTSYVQEKTAGKPILF
notes: Mainly trimeric by SEC, with traces of higher and lower MW materials; source: yeast, purified
For B4, the “stoichiometry N” value [4] was 3.

Reference: paper PMC5834258, “Selective targeting of collagen IV in the cancer cell microenvironment reduces tumor burden” (Oncotarget, 2018)
